± gives the uncertainty stated by the source.
Experiment: amyloid nucleation score (Sup35N fusion, yeast selection) (log enrichment); library NNK2; higher = more nucleation; inactive = no reads after selection
Procedure, shortened: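 Nucleation score: DiMSum log enrichment of output over input reads, centred on the mode score of non-aggregating sequences. Only sequences with at least 100 input reads were kept. Reads came from Illumina sequencing of plasmid inserts before and after 7 days of growth at 30°C without adenine and uracil, in psi-negative yeast expressing Sup35N fused to peptides of 20 random codons after 24 hours of induction with 100 μM copper sulfate.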

Row | Substance | amyloid nucleation score
1 | VITGYCA | 2.48 ± 0.094
2 | VSTSYVTTIVF | -0.237 ± 0.41
3 | NCMPMEYNDGENAVMCGFNG | 0.11 ± 0.27
4 | SRCLSSITVLTCNHMSVKAC | 0.224 ± 0.8
5 | WFSECCSMASIGHSDTMDGS | -0.567 ± 1.1
6 | EDVYKRTQRDWDCLILYQRY | -0.765 ± 0.76
7 | LECNDA | 0.322 ± 0.51
8 | ASNMIV | -0.563 ± 0.33
9 | IVDGEKYDLVWMFEGHG | -0.536 ± 0.39
10 | STLSWSFIYTSIC | 2.24 ± 0.1
11 | PTSNLSWVT | 1.71 ± 0.17
12 | RLSCDTVFMMSFGIICSFFN | 4.418 ± 0.039
13 | YGAWRFGRLALSRRPSYCGM | -0.271 ± 0.27
14 | SSFHWPIKSRDAGVAWSRGG | 2.07 ± 0.18
15 | VREVDILYYC | 0.418 ± 0.48
16 | PVCCFAHMIIHYNCLGQKAY | 2.08 ± 0.12
17 | GRLLFAWLYLCDYGGYIMRV | -0.081 ± 1.1
18 | KCPRVPNLVS | 0.407 ± 0.43
19 | ENELSPRGCRGEPLA | 0.536 ± 0.62
20 | SKWYVGRHFPPWPR | 0.769 ± 0.24
21 | PVLYFLGLSMVDNTITRSTA | -0.763 ± 0.34
22 | VVDSTVGRADGTCGGVVGFA | 0.87 ± 0.41
23 | LKQDKGITGEVVGVRILGS | 0.22 ± 0.32
24 | YDANLRLYSYSRTQLFSSWS | 3.83 ± 0.088

Row | Substance | amyloid nucleation score
25 | AYLTTREAVGLFNKACLASY | 0.439 ± 0.74
26 | TLAWRSGTRRELKEECNGGW | 1.19 ± 0.59
27 | DFYMYSVVDLS | -0.767 ± 0.31
28 | HMNYKYFWGGLFNRMLGQLN | inactive
29 | FCSSFEEYICLNYVIRSEWM | 3.82 ± 0.095
30 | SYEVNIYKLRLQGSSSGF | 3.44 ± 0.066
31 | KRSCDQVCLLSRLIGQAGEW | 2.26 ± 0.1
32 | FAIRYTVMTLFCIRLGLLKV | -0.707 ± 0.27
33 | FKLFMLSSFSLMM | 0.182 ± 1.1
34 | FLGVFSYASSMIISVKRERS | 4.1 ± 0.095
35 | ICAGISKKSGGTWSRARVCS | inactive
36 | GYSYTLRDRCESRLTLRSDV | 0.382 ± 0.37
37 | SFQCSWIG | 3.04 ± 0.088
38 | AAIMMN | -0.231 ± 0.62
39 | VTSNGKRTWHVAAAFGAPGE | 2.54 ± 0.12
40 | SPLCVF | -0.211 ± 0.38
41 | VLCCPSKISTALKCWVGEAC | 0.233 ± 0.62
42 | LSFISRRDNDGYMICEYSLP | 0.264 ± 0.65
43 | KSQVPPNFWVVMCLTEFSVV | 5.628 ± 0.046
44 | CSMVNDLSFNIEARMQSWNS | 0.028 ± 0.79
45 | EYCACTFDWWGYQGCCD | -1.04 ± 0.63
46 | CSVWRDLVAICLRD | inactive
47 | TSVCM | 3.89 ± 0.1
48 | FHYRFFVVMIRGCSFWHFQL | -1.57 ± 0.49

Row | Substance | amyloid nucleation score
49 | GEQYATGLP | 5.514 ± 0.039
50 | KYVGWQYLSSCILGVFPLAG | 0.151 ± 0.32
51 | ELTTIG | 1.62 ± 0.28
52 | GRTVQIMDRVFS | -1.12 ± 0.76
53 | TGTFSAKLVDTPEGYYLLSV | -1.01 ± 0.41
54 | SYVYMREKSIGTDSAVLRSM | inactive
55 | YRCVDYKGIEYLLYREMLTT | 3.93 ± 0.046
56 | DCSSVISKSSLIAVLCFHTN | 5.14 ± 0.058
57 | NGNIKFFHRMRRTRHVACLY | 0.223 ± 0.39
58 | AMFVLVGFEFY | 1.47 ± 0.11
59 | TICFIFHSFRLFRIDAY | 4.54 ± 0.098
60 | RIQINWDEFGQDRELRVSGR | 0.75 ± 0.5
61 | VACHVR | 0.975 ± 0.4
62 | SDLYNSSFEVLYSSYCPDVW | inactive
63 | LSNLMRISMIFEYAAPLFRF | inactive
64 | NRSDPDLCNKC | 1.96 ± 0.14
65 | IKWSLHRYYFVMFICSFIAS | -0.83 ± 0.61
66 | ICVMSQCTQMYRMKICGSLQ | 0.568 ± 0.29
67 | SFSCNNSLDYKGNFS | 1.48 ± 0.18
68 | AHKKRDMWLRKPGL | 1.68 ± 0.53
69 | GDGFLSFSERSKKYSQSS | -0.855 ± 0.55
70 | VVFRIVNRACVMYGVTGGND | -0.915 ± 0.63
71 | AGSNDEKNRWVTSL | -0.22 ± 1

Reference: the supplement of paper PMC12042874
